Assay results as given in US20100196361A1 (published 2010).

Biological target: T1, Tie1-Fc immobilized on a CM5 chip (species not stated)
T1 construct: also called immobilized Tie1-Fc
Experiment: SPR, Tie1-Fc immobilized to the CM5 sensor chip, bivalent anti-Tie1 as analyte
Description: Affinity analysis of the Fab and IgGs was performed using surface plasmon resonance using a BIAcore 3000 instrument. For this analysis both dimeric (Tie1-Fc fusion protein) and monomeric (Tie1-HIS) versions of the extracellular domain of the Tie1 were used. The sensor chips used in these experiments were CM5 (dextran-coated) which allow immobilization of proteins to the chip via standard amine coupling chemistries. The concentration of flowed antibody was determined using a surface plasmon resonance based method. Using a high-density protein A sensor chip, under mass transport limited conditions, the response signal is dependent only on the concentration of the antibody in the sample under test. This approach allows a precise determination of the antibody concentration, a parameter important for accurate determination of the KD.

B1: DX-2220 (full length IgG1, germlined human anti-Tie1 antibody E3b) (antibody, V domains shown)
VH: EVQLLESGGGLVQPGGSLRLSCAASGFTFSMYGMVWVRQAPGKGLEWVSVISPSGGNTGYADSVKGRFTISRDNSKNTLYLQMNSLRAEDTAVYYCARAPRGYSYGYYYWGQGTLVTVSS
VL: DIQMTQSPSSLSASVGDRVTITCRASQGIGHYLAWYQQKPGKVPKLLIYTASTLQSGVPSRFSGSGSGTDFTLTISSLQPEDVATYYCQQFNSYPHTFGQGTRLEIKR
notes: Heavy and light chain frameworks germlined; also called E3b-IgG1; germlined E3b IgG1
Q: Which results are given for B1?
A: Kd: 0.2 nM; fold increase in affinity (against the anti-Tie1 Fab): > 10 fold
